Assays:
Assay in all cases: crystal structure
[1] = target: HIV-1 (M) CA R120 (arginine restored at CA position 120) (HIV-1 group M)
[2] = target: HIV-1 (M-group) CA Q50Y, disulfide-stabilised hexamer construct (A14C, E45C, Q50Y, W184A, M185A) (HIV-1 group M)
[3] = target: HIV-1 (O-group) CA, disulfide-stabilised hexamer construct (A14C, E45C, W185A, M186A) (HIV-1 group O)
[4] = target: SIVcpz CA, disulfide-stabilised hexamer construct (P14C, E45C, W184A, M185A) (SIVcpz (SIVcpzPtt))
[5] = target: SIVmac CA, disulfide-stabilised hexamer construct (P13C, E44C, W182A, M183A) (SIVmac)

Substance: HIV-1 (M) CA R120 (arginine restored at CA position 120) (natural protein)
- stoichiometry N [1]: 6

Substance: HIV-1 (M-group) CA Q50Y, disulfide-stabilised hexamer construct (A14C, E45C, Q50Y, W184A, M185A) (natural protein)
- stoichiometry N [2]: 6

Substance: HIV-1 (O-group) CA, disulfide-stabilised hexamer construct (A14C, E45C, W185A, M186A) (natural protein)
- stoichiometry N [3]: 6

Substance: SIVcpz CA, disulfide-stabilised hexamer construct (P14C, E45C, W184A, M185A) (natural protein)
- stoichiometry N [4]: 6

Substance: SIVmac CA, disulfide-stabilised hexamer construct (P13C, E44C, W182A, M183A) (natural protein)
- stoichiometry N [5]: 6

From publication doi:10.1101/2022.01.21.477263
